Among the data in the supplement of paper PMC10567573 are protein stability index values, retold here.

Sequences and labels used below:
B1: TRIM55 (parent)
chain: FQMEKIEHGYENMNHFTVNLNREE
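Also: lentivirally expressed fusions sorted by FACS into six bins by GFP to DsRed ratio, PSI derived from sequencing read proportions per bin multiplied by bin number.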

In this data set the parent is B1. Briefly: protein stability index of a GFP-peptide fusion (GPS, HEK-293T) (PSI 1-6); higher = more stable. The conditions noted are these: c terminus: a fixed tail appended.
Turning to FQMEKIGHGYENMNHFTVNLNREE, the protein stability index amounted to 2.1.
Consider FQMEKIEHGYENMCHFTVNLNREE, for which the protein stability index was determined as 2.29.
In the case of FQMEKIEHGYENMFHFTVNLNREE it was 2.53; in that of FQMEKIEHGYENMDHFTVNLNREE, 3.45; in that of FQMEKIEHGYENMEHFTVNLNREE, 4.16.
Then FQMEKIEHGYENMKHFTVNLNREE, with 2.99; and FQMEKIEHGYENMHHFTVNLNREE, with 1.69.
Then FQMEKIEHGYENMAHFTVNLNREE, with 3.17; and FQMEKIEHGYENMIHFTVNLNREE, with 1.98.
Take FQMEKIEHGYENMGHFTVNLNREE: the protein stability index turned out to be 3.21.
In the case of FQMEKIEDGYENMNHFTVNLNREE it was 2.71; in that of FQMEKIESGYENMNHFTVNLNREE, 3.02.
In the case of FQMEKIEPGYENMNHFTVNLNREE it was 2.77.
For FQMEKIELGYENMNHFTVNLNREE, the protein stability index is 2.44.
In the case of FQMEKIEIGYENMNHFTVNLNREE, the protein stability index is 2.21.
In the case of FQMEKIEWGYENMNHFTVNLNREE it was 2; in that of FQMEKIEGGYENMNHFTVNLNREE, 2.37; in that of FQMEKIETGYENMNHFTVNLNREE, 2.73.
Take FQMEKIEFGYENMNHFTVNLNREE: the protein stability index was found to be 2.09.
Consider FQMEKIEAGYENMNHFTVNLNREE, for which the protein stability index stood at 2.77.
In the case of FQMEKIEKGYENMNHFTVNLNREE it was 2.84.
In the case of FQMEKIECGYENMNHFTVNLNREE it was 2.65; in that of FQMEKIEMGYENMNHFTVNLNREE, 2.51; in that of FQMEKIENGYENMNHFTVNLNREE, 2.89.
In the case of FQMEKIEVGYENMNHFTVNLNREE it was 3.03.
FQMEKIEQGYENMNHFTVNLNREE: the protein stability index is 2.89.
As for FQMEKIERGYENMNHFTVNLNREE, the protein stability index came to 2.74.
Then FQMEKIEYGYENMNHFTVNLNREE, with 3.03; and FQMEKIEEGYENMNHFTVNLNREE, with 3.51.
Turning to FQMEKIEHQYENMNHFTVNLNREE, the protein stability index is 3.05.
For the variant FQMEKIEHIYENMNHFTVNLNREE, the protein stability index came to 2.4.
In the case of FQMEKIEHYYENMNHFTVNLNREE it was 2.11.
Take FQMEKIEHMYENMNHFTVNLNREE: the protein stability index was 2.45.
Then FQMEKIEHVYENMNHFTVNLNREE, with 3.03.
Then FQMEKIEHAYENMNHFTVNLNREE, with 3.63.
Regarding FQMEKIEHCYENMNHFTVNLNREE, the protein stability index was 2.33.
In the case of FQMEKIEHDYENMNHFTVNLNREE, the protein stability index turned out to be 3.9.
With FQMEKIEHTYENMNHFTVNLNREE, the protein stability index worked out at 3.07.
In the case of FQMEKIEHSYENMNHFTVNLNREE it was 3.21.
As to FQMEKIEHRYENMNHFTVNLNREE, the protein stability index worked out at 2.91.
Take FQMEKIEHNYENMNHFTVNLNREE: the protein stability index worked out at 3.26.
In the case of FQMEKIEHHYENMNHFTVNLNREE it was 3.22; in that of FQMEKIEHLYENMNHFTVNLNREE, 2.94; in that of FQMEKIEHKYENMNHFTVNLNREE, 2.81.
In the case of FQMEKIEHPYENMNHFTVNLNREE it was 2.93.
As to FQMEKIEHEYENMNHFTVNLNREE, the protein stability index turned out to be 3.38.
Turning to FQMEKIEHFYENMNHFTVNLNREE, the protein stability index came out at 2.34.
Consider FQMEKIEHWYENMNHFTVNLNREE, for which the protein stability index was determined as 3.05.
Then FQMEKIEHGYEHMNHFTVNLNREE, with 2.38; and FQMEKIEHGYELMNHFTVNLNREE, with 2.14.
As for FQMEKIEHGYEYMNHFTVNLNREE, the protein stability index stood at 1.84.
On to FQMEKIEHGYECMNHFTVNLNREE, for which the protein stability index came out at 2.06.
For FQMEKIEHGYERMNHFTVNLNREE, the protein stability index worked out at 2.34.
In the case of FQMEKIEHGYEVMNHFTVNLNREE it was 2.04.
Then FQMEKIEHGYEEMNHFTVNLNREE, with 3.57; and FQMEKIEHGYEFMNHFTVNLNREE, with 2.17; and FQMEKIEHGYESMNHFTVNLNREE, with 2.3.
With FQMEKIEHGYEQMNHFTVNLNREE, the protein stability index was found to be 2.51.
As for FQMEKIEHGYEIMNHFTVNLNREE, the protein stability index came out at 1.94.
In the case of FQMEKIEHGYEAMNHFTVNLNREE it was 2.19.
Then FQMEKIEHGYEKMNHFTVNLNREE, with 2.44; and FQMEKIEHGYEWMNHFTVNLNREE, with 1.83; and FQMEKIEHGYEPMNHFTVNLNREE, with 2.37.
FQMEKIEHGYEMMNHFTVNLNREE: the protein stability index was 1.99.
In the case of FQMEKIEHGYEGMNHFTVNLNREE it was 2.98; in that of FQMEKIEHGYEDMNHFTVNLNREE, 3.65; in that of FQMEKIEHGYETMNHFTVNLNREE, 2.76.
In the case of FQMPKIEHGYENMNHFTVNLNREE it was 2.58; in that of FQMTKIEHGYENMNHFTVNLNREE, 2.13; in that of FQMSKIEHGYENMNHFTVNLNREE, 1.9.
In the case of FQMYKIEHGYENMNHFTVNLNREE it was 2.1.
As for FQMWKIEHGYENMNHFTVNLNREE, the protein stability index came to 1.94.
Then FQMQKIEHGYENMNHFTVNLNREE, with 2.42; and FQMVKIEHGYENMNHFTVNLNREE, with 1.8.
Then FQMRKIEHGYENMNHFTVNLNREE, with 2.19.
Regarding FQMEKLEHGYENMNHFTVNLNREE, the protein stability index worked out at 3.44.
For the variant FQMEKQEHGYENMNHFTVNLNREE, the protein stability index is 3.32.
As for FQMEKWEHGYENMNHFTVNLNREE, the protein stability index worked out at 2.06.
Then FQMEKTEHGYENMNHFTVNLNREE, with 2.87.
In the case of FQMEKEEHGYENMNHFTVNLNREE it was 4.13.
In the case of FQMEKREHGYENMNHFTVNLNREE it was 2.6; in that of FQMEKFEHGYENMNHFTVNLNREE, 2.15.
On to FQMEKYEHGYENMNHFTVNLNREE, for which the protein stability index turned out to be 2.97.
In the case of FQMEKDEHGYENMNHFTVNLNREE it was 3.25; in that of FQMEKPEHGYENMNHFTVNLNREE, 3.32.
With FQMEKVEHGYENMNHFTVNLNREE, the protein stability index stood at 3.
In the case of FQMEKGEHGYENMNHFTVNLNREE it was 2.66.
In the case of FQMEKMEHGYENMNHFTVNLNREE it was 2.84; in that of FQMEKKEHGYENMNHFTVNLNREE, 3.07; in that of FQMEKHEHGYENMNHFTVNLNREE, 3.24.
For the variant FQMEKSEHGYENMNHFTVNLNREE, the protein stability index was 3.18.
Turning to FQMEKNEHGYENMNHFTVNLNREE, the protein stability index is 2.87.
With FQMEKCEHGYENMNHFTVNLNREE, the protein stability index is 2.64.
In the case of FQMEKAEHGYENMNHFTVNLNREE it was 3.27.
